One substance from paper PMC2804184 can be followed below.

The assay concerns the target p97 C-terminal peptide (last 10 residues, …), N-terminally labeled with fluorescein. Nature of the assay: fluorescence polarisation.

As for “PLAA C-terminal PUL domain (residues 454-738) (domain or fragment)”, the Kd came to 5 µM.

By Kd is commonly meant a measure of binding affinity in units of concentration. Lower therefore signals a tighter complex.
